Assay results as given in US20100196395A1 (Boehringer Ingelheim, published 2010).
One block for each binder: values may come before it.

Assays:
[1] = target: T1, biotinylated IGF-1 (UniProt P05019 49-118, biotinylated (site not stated)); test: competition ELISA: antibody blocks binding of biotinylated IGF-1 to coated IGF-1R, fluorescence readout
T1 construct: also called IGF-1 ligand
Protocol: To identify IGF antibodies that neutralize the ability of IGF-1 and IGF-2 to bind to the IGF-1R, an ELISA is established by coating plates with 1.5 μg/ml recombinant human IGF-1R (R&D Systems) which allows the binding of biotinylated IGF-1 and biotinylated IGF-2. Bound IGF-1 or IGF-2 is detected using alkaline phosphatase-conjugated streptavidin (1:10,000 dilution) (Roche). […] Antibody Fab fragments that block the binding of biotinylated ligand are identified by a reduction in fluorometric signal.

[2] = target: T2, murine IGF-1 (murine, UniProt P05017 49-118); test: ELISA titration of the IgG1 on coated murine IGF-1, OD 450
T2 construct: bought reagent; also called mouse IGF-1

[3] = target: recombinant human insulin (human, UniProt P01308 25-54; P01308 90-110); test: ELISA titration of the IgG1 on coated human insulin, OD 450
Sequence of recombinant human insulin (P01308 25-54 limits assumed, chain 1 of 2): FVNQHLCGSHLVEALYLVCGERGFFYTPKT
Sequence of recombinant human insulin (P01308 90-110 limits assumed, chain 2 of 2): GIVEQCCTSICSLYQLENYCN

[4] = target: T3, murine IGF-2 (murine, UniProt P09535 25-91); test: ELISA titration of the IgG1 on coated murine IGF-2, OD 450
T3 construct: bought reagent; also called mouse IGF-2

[5] = target: T4, recombinant human IGF-2 (human, UniProt P01344 25-91); test: ELISA titration of the IgG1 on coated human IGF-2, OD 450
T4 construct: mature; also called insulin-like growth factor-2

[6] = target: T5, rat IGF-2 (rat, UniProt P01346 25-91); test: ELISA titration of the IgG1 on coated rat IGF-2, OD 450
T5 construct: bought reagent
T5 sequence (P01346 25-91 limits assumed): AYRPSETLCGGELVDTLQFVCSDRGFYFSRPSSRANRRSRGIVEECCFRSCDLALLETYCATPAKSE

[7] = target: T1, biotinylated IGF-1; test: competition ELISA: antibody titrated against biotinylated IGF-1 binding to coated IGF-1R; antibody 40183; mass concentration
[8] = target: T6, rat IGF-1 (rat, UniProt P08025 49-118); test: ELISA titration of the IgG1 on coated rat IGF-1, OD 450
T6 construct: bought reagent
T6 sequence (P08025 49-118 limits assumed): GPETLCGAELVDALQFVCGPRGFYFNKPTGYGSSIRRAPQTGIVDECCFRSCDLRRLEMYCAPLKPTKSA

[9] = target: T7, recombinant human IGF-1 (human, UniProt P05019 49-118); test: SPR (Biacore), IGF coating method, bivalent antibody injected (avidity); IGF coated on the chip, bivalent antibody injected (avidity)
T7 construct: mature; also called insulin-like growth factor-1

[10] = target: T4, recombinant human IGF-2; test: SPR (Biacore), IGF coating method, bivalent antibody injected (avidity)
Protocol: (§1) Affinity constants are also determined for binding of the IGF antibodies to human IGF-1 and IGF-2 using a method where the IGF ligands are coated to the Biacore sensor chip and a range of antibody concentrations injected. The approximately 30-50-fold increase in the binding constants using this method compared with the initial antibody capture method is likely due to an avidity effect where both antibody binding domains interact with an IGF molecule.

[11] = target: T7, recombinant human IGF-1; test: as above
Protocol: as §1

[12] = target: T1, biotinylated IGF-1; test: competition ELISA: antibody titrated against biotinylated IGF-1 binding to coated IGF-1R; antibody 40186; mass concentration
[13] = target: T2, murine IGF-1; test: SPR (Biacore), antibody capture method, IGF antigen injected
Protocol: (§2) The sensor chip is coated with approximately 1000 RU of the reference antibody in flow cell 1 and approximately 1000 RU of a rabbit-anti-human Fc-gamma-specific antibody in flow cell 2 using the coupling reagents from an amine coupling kit. A target of 1000 RU is set in the surface preparation wizard of the Biacore 3000 software at a flow rate of 5 μl/min. Running buffer used is HBS-EP. […] The IGF antigens are diluted to 500, 250, 125, 62.5 and 31.3 nM in running buffer (HCB) and the different antigen dilutions are run singly over Fc1 and Fc2 with random order. Blank runs using running buffer only are run in-between. A blank run curve is subtracted from each binding curve before affinity analysis. Data evaluation is performed using the BIAevaluation software (version 4.1, Biacore, Freiburg, Germany). The dissociation and association phases of the kinetics are fitted separately. For the separate fit of the kdiss values a time-frame of the initial 200-300 seconds in the dissociation phase is used (range of steady decrease of signal). For the separate fit of the kₐₛₛ values, initial time frames of approx 100 seconds are used (range of steady increase of signal) and for calculation the individual kdiss values are used with the 1:1 Langmuir association model. The average values with the standard deviations of the kinetic data together with the corresponding dissociation (KD) and association (KA) constants are calculated.
(§3) The analysis is initially performed by capturing the IGF antibodies on the sensor chip and injecting a range of antigen concentrations, thereby eliminating the possibility of an avidity effect.

[14] = target: T3, murine IGF-2; test: as above
Protocol: as §2, §3

[15] = target: T4, recombinant human IGF-2; test: as above
Protocol: as §2, §3

[16] = target: T7, recombinant human IGF-1; test: as above
Protocol: as §2, §3

[17] = target: T5, rat IGF-2; test: as above
Protocol: as §2, §3

[18] = target: T6, rat IGF-1; test: as above
Protocol: as §2, §3

IC50 (read off the curve) [1]: ~3 ng/mL
binding result [2]: binds
binding result [3]: no binding (tested: 100 ng/ml)
binding result [4]: binds
binding result [5]: binds
binding result [6]: binds
IC50 [7]: ~5 ng/mL
binding result [8]: binds
B1: antibody 40183 (antibody, human IgG1, lambda, V domains shown)
VH: QVELVESGGGLVQPGGSLRLSCAASGFTWSSFAMSWVRQAPGKGLEWVSYISYLGSYTGYADSVKGRFTISRDNSKNTLYLQMNSLRAEDTAVYYCARGTKFDYWGQGTLVTVSS
VL: DIVLTQPPSVSGAPGQRVTISCTGSSSNIGTYDVHWYQQLPGTAPKLLIYSNSKRPSGVPDRFSGSKSGTSASLAITGLQSEDEADYYCSITRVFGGGTKLTVLG
notes: Fully human IgG1 / Ig lambda

IC50 (read off the curve) [1]: ~5 ng/mL
Ka [9]: 1.22e+10 M⁻¹
Ka [10]: 1.45e+10 M⁻¹
Kd [10]: 0.072 nM
koff [10]: 0.000164 s⁻¹
kon [10]: 2.26e+06 M⁻¹ s⁻¹
Kd [11]: 0.14 nM
koff [11]: 0.00023 s⁻¹
kon [11]: 2.1e+06 M⁻¹ s⁻¹
binding result [3]: no binding (tested: 100 ng/ml)
IC50 [12]: ~5 ng/mL
Ka [13]: 1.44e+08 M⁻¹
Kd [13]: 7.1 nM
koff [13]: 0.00329 s⁻¹
kon [13]: 466000 M⁻¹ s⁻¹
Ka [14]: 1.08e+08 M⁻¹
Kd [14]: 9.56 nM
koff [14]: 0.00586 s⁻¹
kon [14]: 632000 M⁻¹ s⁻¹
Ka [15]: 2.86e+08 M⁻¹
Kd [15]: 3.62 nM
koff [15]: 0.00362 s⁻¹
kon [15]: 1.03e+06 M⁻¹ s⁻¹
Ka [16]: 2.16e+08 M⁻¹
Kd [16]: 4.66 nM
koff [16]: 0.0027 s⁻¹
kon [16]: 581000 M⁻¹ s⁻¹
Ka [17]: 1.67e+08 M⁻¹
Kd [17]: 6.49 nM
koff [17]: 0.00351 s⁻¹
kon [17]: 602000 M⁻¹ s⁻¹
Ka [18]: 3.67e+08 M⁻¹
Kd [18]: 2.76 nM
koff [18]: 0.00301 s⁻¹
kon [18]: 1.1e+06 M⁻¹ s⁻¹
B2: antibody 40186 (antibody, human IgG1, lambda, V domains shown)
VH: QVELVESGGGLVQPGGSLRLSCAASGFTFSNYWMHWVRQAPGKGLEWVSGISGWSSWTYYADSVKGRFTISRDNSKNTLYLQMNSLRAEDTAVYYCARFGIDAYTKVYFDYWGQGTLVTVSS
VL: DIELTQPPSVSVAPGQTARISCSGDNIPLKYVSWYQQKPGQAPVLVIHDDNKRPSGIPERFSGSNSGNTATLTISGTQAEDEADYYCQSWASTGVVFGGGTKLTVLG
notes: Fully human IgG1 / Ig lambda from the HuCAL Gold library
